From patent publication US20230372448A1, “THERAPEUTIC USE OF LONG-ACTING CONJUGATE OF TRIPLE AGONIST ACTING ON ALL OF GLUCAGON, GLP-1 AND GIP RECEPTORS AGAINST MULTIPLE SCLEROSIS” (HANMI PHARM. CO. ,LTD., priority 2020, published 2023)
Positions of bridges follow the written chain, without caps; N, C: chain ends. Non-standard residues stand in square brackets, D forms with d. No end group written: not given here. *: point of attachment. Acetyl(2-(4-imidazolyl)) = O=C(Cc1c[nH]cn1)*; Aib = CC(C)(N)C(=O)O

Legend:
Experiment in all cases: cell-based or functional assay
[1] = target: T1, human GIP receptor (human, UniProt P48546 22-466)
T1 sequence (looked up): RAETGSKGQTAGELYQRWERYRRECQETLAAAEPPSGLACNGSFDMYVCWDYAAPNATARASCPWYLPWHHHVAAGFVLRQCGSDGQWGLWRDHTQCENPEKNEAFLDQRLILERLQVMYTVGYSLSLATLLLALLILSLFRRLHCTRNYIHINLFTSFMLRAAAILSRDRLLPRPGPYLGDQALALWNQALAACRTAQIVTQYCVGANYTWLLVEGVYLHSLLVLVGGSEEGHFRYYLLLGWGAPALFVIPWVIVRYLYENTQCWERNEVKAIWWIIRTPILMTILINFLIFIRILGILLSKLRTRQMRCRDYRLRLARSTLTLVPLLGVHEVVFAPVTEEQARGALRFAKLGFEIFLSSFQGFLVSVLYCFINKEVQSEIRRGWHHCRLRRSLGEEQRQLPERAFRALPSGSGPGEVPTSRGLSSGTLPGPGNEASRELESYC

[2] = target: human GCG receptor (human, UniProt P47871 26-477)
Chain of human GCG receptor (P47871 26-477): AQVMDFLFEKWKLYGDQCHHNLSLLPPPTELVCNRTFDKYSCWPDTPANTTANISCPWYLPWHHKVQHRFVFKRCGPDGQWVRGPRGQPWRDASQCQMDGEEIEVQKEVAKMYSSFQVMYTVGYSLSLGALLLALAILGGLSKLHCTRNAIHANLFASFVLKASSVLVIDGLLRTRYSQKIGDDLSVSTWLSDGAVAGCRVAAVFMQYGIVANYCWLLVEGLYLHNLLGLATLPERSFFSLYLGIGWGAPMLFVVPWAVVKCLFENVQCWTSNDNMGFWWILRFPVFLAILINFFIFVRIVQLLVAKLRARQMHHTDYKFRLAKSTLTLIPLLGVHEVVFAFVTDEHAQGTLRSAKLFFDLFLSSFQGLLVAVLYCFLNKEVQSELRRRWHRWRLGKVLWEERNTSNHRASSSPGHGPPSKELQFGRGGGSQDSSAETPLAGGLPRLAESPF

[3] = target: human GLP-1 receptor (human, UniProt P43220 24-463)

{Acetyl(2-(4-imidazolyl))}-[Aib]QGTFTSDYSIAMDEIHQKDFVNWLLAQC (bridge 15-19; not fully specified) [triple agonist of SEQ ID NO: 85]
In vitro activity (%) compared with native peptide: vs GIP [1]: 0.3%
In vitro activity (%) compared with native peptide: vs Glucagon [2]: < 0.1%
In vitro activity (%) compared with native peptide: vs GLP-1 [3]: 4.3%

{Acetyl(2-(4-imidazolyl))}-[Aib]QGTFTSDYSKYLDEKRQKEFVNWLLAQC (bridge 15-19; not fully specified) [triple agonist of SEQ ID NO: 86]
In vitro activity (%) compared with native peptide: vs GIP [1]: 0.2%
In vitro activity (%) compared with native peptide: vs Glucagon [2]: 0.4%
In vitro activity (%) compared with native peptide: vs GLP-1 [3]: 28.4%

{Acetyl(2-(4-imidazolyl))}-[Aib]QGTFTSDYSIAMDEIHQKDFVNWLLNTC (bridge 15-19; not fully specified) [triple agonist of SEQ ID NO: 87]
In vitro activity (%) compared with native peptide: vs GIP [1]: < 0.1%
In vitro activity (%) compared with native peptide: vs Glucagon [2]: < 0.1%
In vitro activity (%) compared with native peptide: vs GLP-1 [3]: 0.9%

{Acetyl(2-(4-imidazolyl))}-[Aib]QGTFTSDYSKYLDEKRQKEFVQWLLNTKC (bridge 15-19; not fully specified) [triple agonist of SEQ ID NO: 88]
In vitro activity (%) compared with native peptide: vs GIP [1]: < 0.1%
In vitro activity (%) compared with native peptide: vs Glucagon [2]: 0.3%
In vitro activity (%) compared with native peptide: vs GLP-1 [3]: 9.6%

{Acetyl(2-(4-imidazolyl))}-[Aib]QGTFTSDYSKYLDEKRQKEFVQWLLDTKC (bridge 15-19; not fully specified) [triple agonist of SEQ ID NO: 89]
In vitro activity (%) compared with native peptide: vs GIP [1]: < 0.1%
In vitro activity (%) compared with native peptide: vs Glucagon [2]: 0.7%
In vitro activity (%) compared with native peptide: vs GLP-1 [3]: 7.1%

{Acetyl(2-(4-imidazolyl))}-[Aib]EGTFTSDYSIAMDEIHQKDFVNWLLAQKC (bridge 15-19; not fully specified) [triple agonist of SEQ ID NO: 90]
In vitro activity (%) compared with native peptide: vs GIP [1]: < 0.1%
In vitro activity (%) compared with native peptide: vs Glucagon [2]: < 0.1%
In vitro activity (%) compared with native peptide: vs GLP-1 [3]: 7.4%

{Acetyl(2-(4-imidazolyl))}-[Aib]EGTFTSDYSIAMDEIHQKDFVDWLLAEKC (bridge 15-19; not fully specified) [triple agonist of SEQ ID NO: 91]
In vitro activity (%) compared with native peptide: vs GIP [1]: 0.3%
In vitro activity (%) compared with native peptide: vs Glucagon [2]: 16.8%
In vitro activity (%) compared with native peptide: vs GLP-1 [3]: 31.9%

{Acetyl(2-(4-imidazolyl))}-[Aib]QGTFTSDYSIAMDEIHQKDFVNWLLAQKC (bridge 15-19; not fully specified) [triple agonist of SEQ ID NO: 92]
In vitro activity (%) compared with native peptide: vs GIP [1]: 0.4%
In vitro activity (%) compared with native peptide: vs Glucagon [2]: < 0.1%
In vitro activity (%) compared with native peptide: vs GLP-1 [3]: 0.8%

{Acetyl(2-(4-imidazolyl))}-[Aib]QGTFTSDYSKYLDEKRQKEFVNWLLAQKC (bridge 15-19; not fully specified) [triple agonist of SEQ ID NO: 93]
In vitro activity (%) compared with native peptide: vs GIP [1]: 0.7%
In vitro activity (%) compared with native peptide: vs Glucagon [2]: 0.3%
In vitro activity (%) compared with native peptide: vs GLP-1 [3]: 5.7%

{Acetyl(2-(4-imidazolyl))}-[Aib]QGTFTSDYSIAMDEIHQKDFVNWLLNTKC (bridge 15-19; not fully specified) [triple agonist of SEQ ID NO: 94]
In vitro activity (%) compared with native peptide: vs GIP [1]: < 0.1%
In vitro activity (%) compared with native peptide: vs Glucagon [2]: < 0.1%
In vitro activity (%) compared with native peptide: vs GLP-1 [3]: 0.5%

H[Aib]QGTFTSDVSKYLDGQAAQEFVAWLLAGGGPSSGAPPPSC (not fully specified) [triple agonist of SEQ ID NO: 10]
In vitro activity (%) compared with native peptide: vs GIP [1]: < 0.1%
In vitro activity (%) compared with native peptide: vs Glucagon [2]: < 0.1%
In vitro activity (%) compared with native peptide: vs GLP-1 [3]: 46%

Y[Aib]QGTFTSDYSKYLDEKRAKEFVQWLLCHHPSSGQPPPS (bridge 16-20; not fully specified) [triple agonist of SEQ ID NO: 95]
In vitro activity (%) compared with native peptide: vs GIP [1]: < 0.1%
In vitro activity (%) compared with native peptide: vs Glucagon [2]: 0.4%
In vitro activity (%) compared with native peptide: vs GLP-1 [3]: 2.1%

Y[Aib]QGTFTSDYSKYLDEKRAKEFVQWLLDHCPSSGQPPPS (bridge 16-20; not fully specified) [triple agonist of SEQ ID NO: 96]
In vitro activity (%) compared with native peptide: vs GIP [1]: 5.2%
In vitro activity (%) compared with native peptide: vs Glucagon [2]: 195%
In vitro activity (%) compared with native peptide: vs GLP-1 [3]: 34.4%

Y[Aib]QGTFTSDYSKYLDEKRAKEFVQWLLDCHPSSGQPPPS (bridge 16-20; not fully specified) [triple agonist of SEQ ID NO: 97]
In vitro activity (%) compared with native peptide: vs GIP [1]: 2.6%
In vitro activity (%) compared with native peptide: vs Glucagon [2]: 62.8%
In vitro activity (%) compared with native peptide: vs GLP-1 [3]: 10.5%

Y[Aib]QGTFTSDYSKALDEKAAKEFVNWLLDHHPSSGQPPPSC (bridge 16-20; not fully specified) [triple agonist of SEQ ID NO: 98]
In vitro activity (%) compared with native peptide: vs GIP [1]: 47.1%
In vitro activity (%) compared with native peptide: vs Glucagon [2]: 8.2%
In vitro activity (%) compared with native peptide: vs GLP-1 [3]: 28.1%

Y[Aib]QGTFTSDYSKALDEKAAKDFVNWLLDHHPSSGQPPPSC (bridge 16-20; not fully specified) [triple agonist of SEQ ID NO: 99]
In vitro activity (%) compared with native peptide: vs GIP [1]: 57.7%
In vitro activity (%) compared with native peptide: vs Glucagon [2]: 14.9%
In vitro activity (%) compared with native peptide: vs GLP-1 [3]: 20.9%

Y[Aib]QGTFTSDYSKALDEKAAKEFVQWLLDQHPSSGQPPPSC (bridge 16-20) [triple agonist of SEQ ID NO: 100]
In vitro activity (%) compared with native peptide: vs GIP [1]: 118%
In vitro activity (%) compared with native peptide: vs Glucagon [2]: 12.7%
In vitro activity (%) compared with native peptide: vs GLP-1 [3]: 42.2%

Y[Aib]QGTFTSDYSKALDEKAAKEFVNWLLDQHPSSGQPPPSC (bridge 16-20) [triple agonist of SEQ ID NO: 101]
In vitro activity (%) compared with native peptide: vs GIP [1]: 40.1%
In vitro activity (%) compared with native peptide: vs Glucagon [2]: 13.9%
In vitro activity (%) compared with native peptide: vs GLP-1 [3]: 23.2%

Y[Aib]QGTFTSDYSKALDEKAAKDFVNWLLDQHPSSGQPPPSC (bridge 16-20) [triple agonist of SEQ ID NO: 102]
In vitro activity (%) compared with native peptide: vs GIP [1]: 58%
In vitro activity (%) compared with native peptide: vs Glucagon [2]: 29.5%
In vitro activity (%) compared with native peptide: vs GLP-1 [3]: 23.3%

{Acetyl(2-(4-imidazolyl))}-GEGTFTSDLSKYLDSRRQQLFVQWLKAGGPSSGAPPPSHG (not fully specified; also: ring from underlined residues, positions not shown) [triple agonist of SEQ ID NO: 11]
In vitro activity (%) compared with native peptide: vs GIP [1]: < 0.1%
In vitro activity (%) compared with native peptide: vs Glucagon [2]: < 0.1%
In vitro activity (%) compared with native peptide: vs GLP-1 [3]: 1.4%

{Acetyl(2-(4-imidazolyl))}-GEGTFISDLSKYMDEQAVQLFVEWLMAGGPSSGAPPPSHG (not fully specified; also: ring from underlined residues, positions not shown) [triple agonist of SEQ ID NO: 12]
In vitro activity (%) compared with native peptide: vs GIP [1]: < 0.1%
In vitro activity (%) compared with native peptide: vs Glucagon [2]: < 0.1%
In vitro activity (%) compared with native peptide: vs GLP-1 [3]: 0.4%

{Acetyl(2-(4-imidazolyl))}-GEGTFISDYSIQLDEIAVQDFVEWLLAQKPSSGAPPPSHG (not fully specified; also: ring from underlined residues, positions not shown) [triple agonist of SEQ ID NO: 13]
In vitro activity (%) compared with native peptide: vs GIP [1]: < 0.1%
In vitro activity (%) compared with native peptide: vs Glucagon [2]: < 0.1%
In vitro activity (%) compared with native peptide: vs GLP-1 [3]: < 0.1%

H[Aib]QGTFTSDVSSYLDGQAQKEFIAWLVKGC (not fully specified) [triple agonist of SEQ ID NO: 2]
In vitro activity (%) compared with native peptide: vs GIP [1]: < 0.1%
In vitro activity (%) compared with native peptide: vs Glucagon [2]: < 0.1%
In vitro activity (%) compared with native peptide: vs GLP-1 [3]: 5.9%

{Acetyl(2-(4-imidazolyl))}-GQGTFTSDYSIQLDEIAVRDFVEWLKNGGPSSGAPPPSHG (not fully specified; also: ring from underlined residues, positions not shown) [triple agonist of SEQ ID NO: 14]
In vitro activity (%) compared with native peptide: vs GIP [1]: < 0.1%
In vitro activity (%) compared with native peptide: vs Glucagon [2]: < 0.1%
In vitro activity (%) compared with native peptide: vs GLP-1 [3]: 28%

{Acetyl(2-(4-imidazolyl))}-GQGTFTSDLSKQMDSEAQQLFIEWLKNGGPSSGAPPPSHG (not fully specified; also: ring from underlined residues, positions not shown) [triple agonist of SEQ ID NO: 16]
In vitro activity (%) compared with native peptide: vs GIP [1]: < 0.1%
In vitro activity (%) compared with native peptide: vs Glucagon [2]: < 0.1%
In vitro activity (%) compared with native peptide: vs GLP-1 [3]: 2.1%
